Laboratory results reported in article PMC12312269, “Directed evolution of α-ketoisovalerate decarboxylase for improved isobutanol and 3-methyl-1-butanol production in cyanobacteria” (Biotechnology for Biofuels and Bioproducts, 2025).

Target: the molecule itself
Assay: crystal structure; hanging-drop vapour diffusion, 16-17.8% PEG6000 or PEG3350, 0.1 M MES pH 6.0, 20 °C; space group C2, four molecules (two dimers) in the asymmetric unit

B1: α-ketoisovalerate decarboxylase Kivd^S286T (enzyme, Lactococcus lactis)
chain: MYTVGDYLLDRLHELGIEEIFGVPGDYNLQFLDQIISHKDMKWVGNANELNASYMADGYARTKKAAAFLTTFGVGELSAVNGLAGSYAENLPVVEIVGSPTSKVQNEGKFVHHTLADGDFKHFMKMHEPVTAARTLLTAENATVEIDRVLSALLKERKPVYINLPVDVAAAKAEKPSLPLKKENSTSNTSDQEILNKIQESLKNAKKPIVITGHEIISFGLEKTVTQFISKTKLPITTLNFGKSSVDEALPSFLGIYNGTLSEPNLKEFVESADFILMLGVKLTDTSTGAFTHHLNENKMISLNIDEGKIFNERIQNFDFESLISSLLDLSEIEYKGKYIDKKQEDFVPSNALLSQDRLWQAVENLTQSNETIVAEQGTSFFGASSIFLKSKSHFIGQPLWGSIGYTFPAALGSQIADKESRHLLFIGDGSLQLTVQELGLAIREKINPICFIINNDGYTVEREIHGPNQSYNDIPMWNYSKLPESFGATEDRVVSKIVRTENEFVSVMKEAQADPNRMYWIELILAKEGAPKVLKKMGKLFAEQNKS
notes: α-ketoisovalerate decarboxylase (Kivd) from Lactococcus lactis with the substitution S286T; the structure section names residues up to 548; Stored with 2.5 mM MgSO4 and 0.1 mM ThDP; also called ST; not shown: H6-Ub, N-terminal, cleaved
stoichiometry N: 4
